US20230391885A1 (INTEGRAL MOLECULAR, published 2023)
Changes are numbered by the printed parent chain. Read-outs that look alike come from different tables or passages of the source.

Tests used:
[1] = target: T1, Claudin 18.2 (human) (human); test: biolayer interferometry (Octet Red), biotinylated hsCLDN18.2-VLPs on streptavidin tips, antibody in solution, 1:1 model
T1 construct: Multispanning membrane protein; also called hsCLDN18.2

[2] = target: T1, Claudin 18.2 (human); test: flow cytometry, antibody titration on HEK-293T cells transfected with human CLDN18.2
Excerpt: (§1) Fluorescence was detected using an Intellicyt high-throughput flow cytometer (HTFC; Intellicyt, Albuquerque, NM).”).

[3] = target: T2, Claudin 18.2 (mouse) (mouse, UniProt P56857 10-264); test: flow cytometry, antibody titration on HEK-293T cells transfected with mouse CLDN18.2
T2 construct: Expressed on transfected HEK-293T cells; also called mouse CLDN18.2
T2 chain: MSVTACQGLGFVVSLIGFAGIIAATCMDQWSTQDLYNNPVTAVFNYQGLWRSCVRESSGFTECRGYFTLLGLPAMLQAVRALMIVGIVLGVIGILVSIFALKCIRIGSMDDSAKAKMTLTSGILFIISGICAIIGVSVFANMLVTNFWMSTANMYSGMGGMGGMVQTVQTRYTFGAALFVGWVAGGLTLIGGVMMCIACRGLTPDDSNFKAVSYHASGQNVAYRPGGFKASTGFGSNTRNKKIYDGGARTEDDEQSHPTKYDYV
Excerpt: as §1

[4] = target: T3, Claudin 18.2 (cynomolgus) (cynomolgus); test: flow cytometry, antibody titration on HEK-293T cells transfected with cynomolgus CLDN18.2
T3 construct: Expressed on transfected HEK-293T cells; also called cynomolgus CLDN18.2
T3 chain: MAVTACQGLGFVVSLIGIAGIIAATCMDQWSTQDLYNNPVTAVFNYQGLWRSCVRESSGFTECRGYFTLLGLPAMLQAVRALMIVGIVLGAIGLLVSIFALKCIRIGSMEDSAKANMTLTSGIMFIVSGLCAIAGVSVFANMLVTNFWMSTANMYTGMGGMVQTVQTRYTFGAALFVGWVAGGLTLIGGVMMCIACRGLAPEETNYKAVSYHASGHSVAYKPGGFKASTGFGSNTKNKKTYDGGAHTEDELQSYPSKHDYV
Excerpt: as §1

[5] = target: T1, Claudin 18.2 (human); test: cell binding (MFI), titration on cells with native Claudin 18.2; cell type and species not stated for this figure
[6] = target: T1, Claudin 18.2 (human); test: flow cytometry, antibody titration on HEK-293T cells transfected with hsCLDN18.2, APC-labelled anti-human secondary
Excerpt: Fluorescence was detected using an Intellicyt high-throughput flow cytometer (HTFC; Intellicyt, Albuquerque, NM).

[7] = target: T1, Claudin 18.2 (human); test: biolayer interferometry (Octet Red), biotinylated hsCLDN18.2-VLPs on streptavidin tips, antibody in solution, 1:1 model; hsCLDN18.2 on biotinylated VLPs on the biosensor tip
Description: All biosensor studies were performed in PBS buffer supplemented with 1 mg/mL bovine serum albumin (BSA; PBS-B) at 25° C. using a ForteBio Octet Red biosensor system (Pall-ForteBio, Inc., Menlo Park, CA). […] Antibody binding and dissociation kinetics were determined for serial dilutions of antibody in PBS-B starting at 20 μg/mL. Antibody association was measured for 5 minutes followed by dissociation for up to 45 minutes in buffer. Non-specific binding was assessed using sensor tips with VLPs containing only endogenous proteins (Null VLPs). Data analysis was performed using the Octet data analysis program (v8.1; ForteBio) using a standard 1:1 binding model.

[8] = target: T1, Claudin 18.2 (human); test: flow cytometry, antibody titration on HEK-293T cells transfected with human CLDN18.2; remark: listed apart in the source
Excerpt: as §1

[9] = target: T2, Claudin 18.2 (mouse); test: flow cytometry, antibody titration on HEK-293T cells transfected with mouse CLDN18.2
Excerpt: as §1

[10] = target: T3, Claudin 18.2 (cynomolgus); test: flow cytometry, antibody titration on HEK-293T cells transfected with cynomolgus CLDN18.2
Excerpt: as §1

[11] = target: T1, Claudin 18.2 (human); test: cell binding (MFI), titration on cells with native Claudin 18.2; cell type and species not stated for this figure; remark: listed apart in the source
[12] = target: T2, Claudin 18.2 (mouse); test: flow cytometry, antibody titration on HEK-293T cells transfected with mouse CLDN18.2
Excerpt: as §1

[13] = target: T3, Claudin 18.2 (cynomolgus); test: flow cytometry, antibody titration on HEK-293T cells transfected with cynomolgus CLDN18.2
Excerpt: as §1

[14] = target: T1, Claudin 18.2 (human); test: cell binding (MFI), titration on cells with native Claudin 18.2; cell type and species not stated for this figure; remark: listed apart in the source

B1: zolbetuximab (antibody, V domains shown)
VH: QVQLQQPGAELVRPGASVKLSCKASGYTFTSYWINWVKQRPGQGLEWIGNIYPSDSYTNYNQKFKDKATLTVDKSSSTAYMQLSSPTSEDSAVYYCTRSWRGNSFDYWGQGTTLTVSS
VL: DIVMTQSPSSLTVTAGEKVTMSCKSSQSLLNSGNQKNYLTWYQQKPGQPPKLLIYWASTRESGVPDRFTGSGSGTDFTLTISSVQAEDLAVYYCQNDYSYPFTFGSGTKLEIK
**Q.** For B1, which Kd [1] is on record?
**A.** The Kd was 0.3 nM.

B2: MAb2 (IM-44-01E10-1HA) (antibody, V domains shown)
VH: EVQLLESGGGLVQPGGSLRLSCAASGFTFSSYGMSWVRQAPGKGLEWVAGIGSSGSDTWYADSVKGRFTISRDNSKNTLYLQMNSLRAEDTAVYYCAKDATNGYCWYTGRGSYSCGAHHIDAWGQGTLVTVSS
VL: SYELTQPPSVSVSPGQTARITCSGGSGSYGYYGWYQQKPGQAPVTVIYGTNKRPSGIPERFSGSSSGTTVTLTISGVQAEDEADYYCGGYDSSAGIFGGGTKLTVL
notes: Humanized antibody derived from a chicken scFv; tested as 'purified IgG' (bivalent); The general methods say candidate scFv were converted to human IgG1-Fc (scFv-Fc) format
**Q.** Which results are given for B2?
**A.** EC50 (read off the curve) [2]: ~6 nM; EC50 (read off the curve) [3]: ~6 nM; EC50 (read off the curve) [4]: ~4 nM; EC50 (read off the curve) [5]: ~4 nM; EC50 (read off the curve) [6]: ~4 nM; Kd [7]: 0.3 nM

B3: monovalent form of MAb2 (other)
VH: B2 VH
VL: B2 VL
notes: also called MAb2 monovalent; monomeric MAb2
**Q.** Which “EC50 (read off the curve)” value [5] does the source give for B3 here?
**A.** Its value is ~10 nM.

B4: MAb1 (IM-44-09B03-1H1B) (antibody, V domains shown)
VH: EVQLLESGGGLVQPGGSLRLSCAASGFTFSSYGMGWVRQAPGKGLEWVAAITRDSSTNYGAAVKGRATISRDNSKNTLYLQMNSLRAEDTAVYYCAKDASNGYCWYTGRGSYSCGAHHIDAWGQGTLVTVSS
VL: SYELTQPPSVSVSPGQTARITCSGGYNGHYGWYQQKPGQAPVTVIYSNNQRPSGIPERFSGSSSGTTVTLTISGVQAEDEADYYCGGYDSSAGIFGGGTKLTVL
notes: Humanized antibody derived from a chicken scFv; tested as 'purified IgG' (bivalent); The general methods say candidate scFv were converted to human IgG1-Fc (scFv-Fc) format; also called IM-44-09B03-1HB; IM-44-09B03-1HIB
**Q.** With B4 as the binder, how does the “EC50 (read off the curve)” value [8] read?
**A.** The value was ~4 nM.

**Q.** What about the “EC50 (read off the curve)” value [9] of the same binder?
**A.** The value was ~4 nM.

**Q.** And the “EC50 (read off the curve)” value [10]?
**A.** Its value is ~5 nM.

**Q.** What about the “EC50 (read off the curve)” value [11] of the same binder?
**A.** Its value is ~0.8 nM.

**Q.** And the “EC50 (read off the curve)” value [6]?
**A.** Its value is ~5 nM.

**Q.** What about the Kd [7] of the same binder?
**A.** Its Kd is 0.1 nM.

B5: monovalent form of MAb1 (other)
VH: B4 VH
VL: B4 VL
notes: also called MAb1 monovalent; monomeric MAb1
**Q.** For B5, which “EC50 (read off the curve)” value [11] is on record?
**A.** Its value is ~3 nM.

B6: MAb3 (IM-44-05H06-1HD) (antibody, V domains shown)
VH: EVQLLESGGGLVQPGGSLRLSCAASGFTFRSYAMMWVRQAPGKGLEWVGEISSTGGSTYYGSAVKGRATISRDNSKNTLYLQMNSLRAEDTAVYYCAKSTYGATWKSADSIDAWGQGTLVTVSS
VL: B4 VL with T43L
notes: as for B2
**Q.** With B6 as the binder, how does the “EC50 (read off the curve)” value [12] read?
**A.** Its value is ~9 nM.

**Q.** What about the “EC50 (read off the curve)” value [13] of the same binder?
**A.** The value was ~9 nM.

**Q.** What about the “EC50 (read off the curve)” value [14] of the same binder?
**A.** Its value is ~3 nM.

**Q.** And the Kd [7]?
**A.** Its Kd is 1.2 nM.
